The test system of this data set is Escherichia coli TOP10. The data set can be described thus: shrunken log2 fold change of peptide-encoding DNA abundance (4.5 h post-induction vs induction); higher = less antimicrobial activity (less host growth inhibition). The settings on record: time post-induction: 4.5 h; library: site-saturation at positions 5, 18, 19, 20.
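Note: peptides expressed intracellularly from a pBAD plasmid library in pooled LB shake-flask culture, induced with 0.3% L-arabinose, DNA abundance read by NGS, three biological replicates, DESeq2 with apeglm shrinkage.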

Turning to RRIRVRPPRLPRPRPRPMYWPRP, the “shrunken log2 fold change” value is -0.0619.
As to RRIRKRPPRLPRPRPRPCELPRP, the “shrunken log2 fold change” value was -0.00602.
With RRIRHRPPRLPRPRPRPNLNPRP the figure was -0.786; with RRIRKRPPRLPRPRPRPFPCPRP, 0.0314; with RRIRLRPPRLPRPRPRPAHYPRP, -0.147.
With RRIRRRPPRLPRPRPRPRGLPRP the figure was 0.396; with RRIRYRPPRLPRPRPRPPYFPRP, -0.262; with RRIRCRPPRLPRPRPRPVLIPRP, -0.414.
With RRIRYRPPRLPRPRPRPPLTPRP the figure was -0.403; with RRIRPRPPRLPRPRPRPWRFPRP, 0.212; with RRIRPRPPRLPRPRPRPKHMPRP, -0.0288.
Take RRIRQRPPRLPRPRPRPSQGPRP: the “shrunken log2 fold change” value worked out at 4.77e-05.
With RRIRWRPPRLPRPRPRPVMPPRP the figure was 0.15; with RRIRSRPPRLPRPRPRPISLPRP, 1.99; with RRIRYRPPRLPRPRPRPTNWPRP, -0.185.
Next, RRIRMRPPRLPRPRPRPLIRPRP: -0.373.
Next, RRIRYRPPRLPRPRPRPSWQPRP: -0.526; RRIRRRPPRLPRPRPRPHVIPRP: -0.0937.
As for RRIRNRPPRLPRPRPRPPAGPRP, the “shrunken log2 fold change” value is 0.637.
RRIRTRPPRLPRPRPRPPDTPRP: the “shrunken log2 fold change” value is 0.0652.
With RRIRRRPPRLPRPRPRPRYGPRP the figure was 0.0155.
Regarding RRIRYRPPRLPRPRPRPCQHPRP, the “shrunken log2 fold change” value is -0.253.
RRIRDRPPRLPRPRPRPKMYPRP: the “shrunken log2 fold change” value worked out at 0.0269.
Next, RRIRERPPRLPRPRPRPYTVPRP: -0.74; RRIRKRPPRLPRPRPRPACGPRP: 0.845.
With RRIRVRPPRLPRPRPRPRVNPRP the figure was -0.159; with RRIRARPPRLPRPRPRPKVEPRP, 0.571.
With RRIRCRPPRLPRPRPRPKTLPRP the figure was -0.246; with RRIRERPPRLPRPRPRPFKWPRP, -0.0223.
Take RRIRHRPPRLPRPRPRPPVTPRP: the “shrunken log2 fold change” value was -0.0642.
With RRIRMRPPRLPRPRPRPHTIPRP the figure was 0.0593; with RRIRFRPPRLPRPRPRPVHWPRP, -0.105; with RRIRFRPPRLPRPRPRPMSQPRP, 0.0397.
Next, RRIRRRPPRLPRPRPRPIIPPRP: -0.36; RRIRNRPPRLPRPRPRPESYPRP: -0.0446.
Take RRIRCRPPRLPRPRPRPIERPRP: the “shrunken log2 fold change” value turned out to be 0.0355.
For RRIRHRPPRLPRPRPRPPFPPRP, the “shrunken log2 fold change” value stood at 0.0224.
Next, RRIRGRPPRLPRPRPRPCMEPRP: 0.831.
Next, RRIRFRPPRLPRPRPRPIAVPRP: -0.116.
For the sequence RRIRRRPPRLPRPRPRPPDNPRP, the “shrunken log2 fold change” value stood at 0.548.
With RRIRFRPPRLPRPRPRPVCHPRP the figure was -0.705.
Next, RRIRLRPPRLPRPRPRPKHAPRP: 0.0823; RRIRDRPPRLPRPRPRPTCPPRP: -0.119.
On to RRIRWRPPRLPRPRPRPFPIPRP, for which the “shrunken log2 fold change” value is -0.169.
Next, RRIRPRPPRLPRPRPRPQKYPRP: -0.257; RRIRWRPPRLPRPRPRPFANPRP: -0.0747; RRIRKRPPRLPRPRPRPPEFPRP: 0.0984.
Regarding RRIRHRPPRLPRPRPRPAEQPRP, the “shrunken log2 fold change” value stood at 0.0649.
Turning to RRIRTRPPRLPRPRPRPYYFPRP, the “shrunken log2 fold change” value is -0.783.
Next, RRIRFRPPRLPRPRPRPSSYPRP: -0.676; RRIRVRPPRLPRPRPRPQGDPRP: -0.0558.
Consider RRIRDRPPRLPRPRPRPQYFPRP, for which the “shrunken log2 fold change” value was found to be 0.0205.
Next, RRIRWRPPRLPRPRPRPFLDPRP: -0.233; RRIRKRPPRLPRPRPRPMIRPRP: 0.134; RRIRRRPPRLPRPRPRPTRFPRP: 1.08.
With RRIRARPPRLPRPRPRPKATPRP the figure was 0.347; with RRIRERPPRLPRPRPRPIVTPRP, -0.158; with RRIRFRPPRLPRPRPRPRQFPRP, -0.0547.
With RRIRYRPPRLPRPRPRPVHAPRP the figure was -0.13; with RRIRVRPPRLPRPRPRPPEYPRP, -0.225; with RRIRFRPPRLPRPRPRPTRLPRP, 0.08.
In the case of RRIRMRPPRLPRPRPRPPPFPRP, the “shrunken log2 fold change” value amounted to 1.15.
With RRIRSRPPRLPRPRPRPTNVPRP the figure was -0.358.
Regarding RRIRKRPPRLPRPRPRPNEWPRP, the “shrunken log2 fold change” value came out at 0.0498.
For RRIRIRPPRLPRPRPRPFPEPRP, the “shrunken log2 fold change” value was -0.45.
Next, RRIRPRPPRLPRPRPRPALIPRP: -0.0205; RRIRRRPPRLPRPRPRPTENPRP: 0.464; RRIRWRPPRLPRPRPRPSPEPRP: 0.383.
With RRIRMRPPRLPRPRPRPAPEPRP the figure was 0.874; with RRIRERPPRLPRPRPRPLPDPRP, -0.0462; with RRIRARPPRLPRPRPRPMGVPRP, 0.103.
With RRIRFRPPRLPRPRPRPCWMPRP the figure was -0.0459.
For RRIRHRPPRLPRPRPRPQARPRP, the “shrunken log2 fold change” value amounted to 0.225.
Turning to RRIRCRPPRLPRPRPRPSSTPRP, the “shrunken log2 fold change” value is -0.855.
Next, RRIRTRPPRLPRPRPRPVRVPRP: 0.229; RRIRFRPPRLPRPRPRPVFDPRP: -0.258; RRIRERPPRLPRPRPRPWSDPRP: -0.0787.
Next, RRIRPRPPRLPRPRPRPQDFPRP: -0.0957; RRIRVRPPRLPRPRPRPVGMPRP: -0.0289; RRIRGRPPRLPRPRPRPDDMPRP: 0.00936.
Take RRIRQRPPRLPRPRPRPSHTPRP: the “shrunken log2 fold change” value was -0.195.
Next, RRIRTRPPRLPRPRPRPTPHPRP: 0.283; RRIRYRPPRLPRPRPRPAHGPRP: 0.1; RRIRYRPPRLPRPRPRPQRIPRP: -0.0956.
Next, RRIRNRPPRLPRPRPRPTMNPRP: -0.134.
Next, RRIRPRPPRLPRPRPRPCKRPRP: -0.0941.
Regarding RRIRTRPPRLPRPRPRPMTKPRP, the “shrunken log2 fold change” value is -0.0084.
With RRIRWRPPRLPRPRPRPEDRPRP the figure was 0.213; with RRIRQRPPRLPRPRPRPSATPRP, 0.0854; with RRIRVRPPRLPRPRPRPPVQPRP, 0.377.
Next, RRIRNRPPRLPRPRPRPLYNPRP: -0.0372; RRIRWRPPRLPRPRPRPPSFPRP: -0.0861; RRIRQRPPRLPRPRPRPREAPRP: 0.384.
For RRIRRRPPRLPRPRPRPCGAPRP, the “shrunken log2 fold change” value was 0.503.
Turning to RRIRCRPPRLPRPRPRPPSQPRP, the “shrunken log2 fold change” value is 0.355.
With RRIRFRPPRLPRPRPRPFCVPRP, the “shrunken log2 fold change” value was -0.722.
With RRIRNRPPRLPRPRPRPCMGPRP the figure was -0.256; with RRIRNRPPRLPRPRPRPASSPRP, -0.317; with RRIRNRPPRLPRPRPRPLNNPRP, -0.478.
Take RRIRIRPPRLPRPRPRPDNAPRP: the “shrunken log2 fold change” value was -0.717.
With RRIRSRPPRLPRPRPRPWLAPRP the figure was 0.166; with RRIRFRPPRLPRPRPRPFYFPRP, -0.681.
With RRIRTRPPRLPRPRPRPEMYPRP the figure was -0.012; with RRIRQRPPRLPRPRPRPDWIPRP, -0.035.
Next, RRIRIRPPRLPRPRPRPAPPPRP: 0.398; RRIRERPPRLPRPRPRPYGHPRP: -0.136.
Turning to RRIRKRPPRLPRPRPRPCWIPRP, the “shrunken log2 fold change” value is -0.0557.
Next, RRIRVRPPRLPRPRPRPAKQPRP: -0.0993; RRIRKRPPRLPRPRPRPHLTPRP: 0.055.
Next, RRIRCRPPRLPRPRPRPVFIPRP: -0.612; RRIRERPPRLPRPRPRPHAQPRP: -0.0243.
Next, RRIRHRPPRLPRPRPRPRDVPRP: -0.191; RRIRHRPPRLPRPRPRPLGRPRP: 0.218; RRIRYRPPRLPRPRPRPPMKPRP: -0.137.
For RRIRCRPPRLPRPRPRPTVHPRP, the “shrunken log2 fold change” value is -0.413.
On to RRIRIRPPRLPRPRPRPQKFPRP, for which the “shrunken log2 fold change” value was -0.0902.
Next, RRIRVRPPRLPRPRPRPKLLPRP: -0.0409; RRIRQRPPRLPRPRPRPNMMPRP: -0.442; RRIRFRPPRLPRPRPRPNAFPRP: 0.00827.
With RRIRIRPPRLPRPRPRPNRGPRP the figure was -0.203; with RRIRVRPPRLPRPRPRPAHFPRP, 0.31; with RRIRTRPPRLPRPRPRPNWAPRP, -0.243.
Next, RRIRRRPPRLPRPRPRPMKRPRP: 0.0474; RRIRPRPPRLPRPRPRPCHCPRP: 0.153; RRIRMRPPRLPRPRPRPYVSPRP: 0.013.

Source of the values: the supplement of paper PMC9112550, “Optimization of the antimicrobial peptide Bac7 by deep mutational scanning” (BMC Biology, 2022).
